Common to all, as to conditions: tags: R&D Systems
Data set [1] has as its target T1, ADAMTS5 (UniProt Q9UNA0 Q9UNA0:262-622).
T1 sequence: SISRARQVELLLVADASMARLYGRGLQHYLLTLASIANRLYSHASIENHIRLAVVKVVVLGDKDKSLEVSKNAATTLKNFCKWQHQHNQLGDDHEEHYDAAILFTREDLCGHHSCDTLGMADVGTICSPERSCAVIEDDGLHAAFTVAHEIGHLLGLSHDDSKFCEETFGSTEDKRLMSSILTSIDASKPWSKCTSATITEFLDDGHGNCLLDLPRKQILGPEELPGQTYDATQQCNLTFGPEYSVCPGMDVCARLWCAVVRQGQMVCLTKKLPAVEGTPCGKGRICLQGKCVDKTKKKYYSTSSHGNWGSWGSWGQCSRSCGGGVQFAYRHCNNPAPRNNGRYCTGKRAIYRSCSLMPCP
Description: inhibition; method 2 ELISA, 0.2 nM enzyme; method 1 77.5%. The method, then:
(§1) The substrate cleavage efficiency of ADAMTS5 under these reaction conditions was 80-100%. The inhibition rate of the test substance was calculated using the following equation.
(§2) On the other hand, the aptamers having the sequences shown by the sequences of SEQ ID NOs: 11(34)-11(35) and SEQ ID NO: 15 were evaluated by the following method (evaluation method 2). The cleavage reaction of the substrate (aggrecan G1-IGD-G2) by ADAMTS5 was performed in the same manner as in Example 1 except the following points. The differences are that the final concentrations of ADAMTS5 and the substrate were respectively 0.2 nM and 400 nM (48 μg/mL), and that the enzyme reaction time was 30 min. […] The cleaved substrate was quantified by a sandwich ELISA method using two kinds of anti-aggrecan antibodies. […] Using this, the amount of cleaved substrate can be quantified. […] The inhibition rate of the test substance was calculated using the following equation.
(§3) The aptamers having the sequences shown in SEQ ID NOs: 28(l)-28(18) (SEQ ID NO: 28 lineage) and SEQ ID NOs: 29(1)-29(3) (SEQ ID NO: 29 lineage) were all produced by chemical synthesis. Whether these aptamers inhibit the enzyme activity of ADAMTS5 was evaluated by a method similar to that in Example 1 and Example 5. In the Table, “n.d.” means not determined. […] “n.d.” means not determined.

In data set [2] the target is T1, ADAMTS5. Description: inhibition; method 2 ELISA; 98.1% at 2 nM. The protocol:
as §1, §2, §3

The target in data set [3] is T1, ADAMTS5. Description: inhibition; method 2 ELISA; 95.9% at 2 nM. The protocol: as §1, §2, §3
(In general: An ELISA detects its analyte on a solid surface through an enzyme-linked reagent.)

For data set [4], the target named is T1, ADAMTS5. Description: inhibition; method 2 ELISA; method 1 92.9%. The method, then:
The heat-treated reaction solution was electrophoresed by 7.5% SDS-PAGE and stained with SYPRO Orange (manufactured by Sigma-Aldrich). The staining was performed according to the manual of Sigma-Aldrich and detected using STORM840 manufactured by GE Healthcare. […] The amount of uncleaved substrate in each reaction solution was quantified from the band intensity and the standard curve. The substrate cleavage efficiency of ADAMTS5 under these reaction conditions was 80-100%. The inhibition rate of the test substance was calculated using the following equation.
On the other hand, the aptamers having the sequences shown by the sequences of SEQ ID NOs: 11(34)-11(35) and SEQ ID NO: 15 were evaluated by the following method (evaluation method 2). […] The cleaved substrate was quantified by a sandwich ELISA method using two kinds of anti-aggrecan antibodies. […] Using this, the amount of cleaved substrate can be quantified. […] The inhibition rate of the test substance was calculated using the following equation.
The aptamers having the sequences shown in SEQ ID NOs: 28(l)-28(18) (SEQ ID NO: 28 lineage) and SEQ ID NOs: 29(1)-29(3) (SEQ ID NO: 29 lineage) were all produced by chemical synthesis. Whether these aptamers inhibit the enzyme activity of ADAMTS5 was evaluated by a method similar to that in Example 1 and Example 5.

The text below walks through data of patent publication US20210246451, “APTAMER FOR ADAMTS5 AND USE FOR APTAMER FOR ADAMTS5” (RIBOMIC INC., published 2021).

As for CGUAGGGGCCUCCACAGCGUAAGCUUGGACUUAAACCACG (ssRNA, as SEQ 28 plus 2'-OMe at U31) [28(3)], the 50% inhibitory concentration (IC50) (in general, the point on the concentration scale where inhibition reaches its midpoint) with ADAMTS5 [1] worked out at 0.108 nM. In turn, CGUAGGGGCCUCCACAGCGUAAGCUUGGACUUAAACCACG (ssRNA, as SEQ 28 plus 2'-OMe at 20-22,31; 3' idT) [28(15)] registered an IC50 with ADAMTS5 [2] of 0.084 nM. The molecule CGUAGGGGCCUCCACAGCGUAAGCUUGGACUUAAACCACG (ssRNA, as SEQ 28 plus 2'-OMe at 20-22,31; 5' 40 kDa branched PEG; 3' idT) [28(18)] returned an IC50 with ADAMTS5 [3] of 0.029 nM. The molecule CGUAGGGGCCUCCACAGCAUUCGCUUGGACACAAACCACG (ssRNA, as SEQ 29 plus 2'-OMe at A31; 3' idT) [29(1)] had an IC50 in the data set with ADAMTS5 [4] of 0.17 nM.
